Test results reported in IntAct's records for PubMed 17357085.

B1: Homeobox protein SIX5 (Homo sapiens), Q8N196 (parent)
chain: MATLPAEPSAGPAAGGEAVAAAAATEEEEEEARQLLQTLQAAEGEAAAAAGAGAGAAAAGAEGPGSPGVPGSPPEAASEPPTGLRFSPEQVACVCEALLQAGHAGRLSRFLGALPPAERLRGSDPVLRARALVAFQRGEYAELYRLLESRPFPAAHHAFLQDLYLRARYHEAERARGRALGAVDKYRLRKKFPLPKTIWDGEETVYCFKERSRAALKACYRGNRYPTPDEKRRLATLTGLSLTQVSNWFKNRRQRDRTGAGGGAPCKSESDGNPTTEDESSRSPEDLERGAAPVSAEAAAQGSIFLAGTGPPAPCPASSSILVNGSFLAASGSPAVLLNGGPVIINGLALGEASSLGPLLLTGGGGAPPPQPSPQGASETKTSLVLDPQTGEVRLEEAQSEAPETKGAQVAAPGPALGEEVLGPLAQVVPGPPTAATFPLPPGPVPAVAAPQVVPLSPPPGYPTGLSPTSPLLNLPQVVPTSQVVTLPQAVGPLQLLAAGPGSPVKVAAAAGPANVHLINSGVGVTALQLPSATAPGNFLLANPVSGSPIVTGVALQQGKIILTATFPTSMLVSQVLPPAPGLALPLKPETAISVPEGGLPVAPSPALPEAHALGTLSAQQPPPAAATTSSTSLPFSPDSPGLLPNFPAPPPEGLMLSPAAVPVWSAGLELSAGTEGLLEAEKGLGTQAPHTVLRLPDPDPEGLLLGATAGGEVDEGLEAEAKVLTQLQSVPVEEPLEL
partner: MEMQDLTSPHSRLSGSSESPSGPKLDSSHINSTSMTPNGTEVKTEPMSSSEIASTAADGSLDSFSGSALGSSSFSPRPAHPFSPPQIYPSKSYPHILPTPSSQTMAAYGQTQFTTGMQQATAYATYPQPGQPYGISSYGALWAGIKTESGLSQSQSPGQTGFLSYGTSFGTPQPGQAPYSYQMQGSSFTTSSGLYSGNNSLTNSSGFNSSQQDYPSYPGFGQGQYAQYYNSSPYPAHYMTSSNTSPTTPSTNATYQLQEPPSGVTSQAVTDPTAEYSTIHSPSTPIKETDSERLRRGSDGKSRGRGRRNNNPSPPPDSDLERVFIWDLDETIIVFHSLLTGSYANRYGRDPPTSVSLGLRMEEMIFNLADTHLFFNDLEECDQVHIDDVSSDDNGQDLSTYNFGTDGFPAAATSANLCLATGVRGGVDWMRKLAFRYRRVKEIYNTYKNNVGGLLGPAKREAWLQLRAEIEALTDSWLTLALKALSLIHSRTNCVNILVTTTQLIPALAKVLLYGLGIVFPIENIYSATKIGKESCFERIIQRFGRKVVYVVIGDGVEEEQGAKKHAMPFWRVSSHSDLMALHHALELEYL

Variants of: B1
Settings: with eya1_mouse Eya1, P97767

Row | effect of a mutation on the interaction | Variant
1 | decreasing interaction | A158T
2 | decreasing interaction | T552M
